{
  "source": "paper PMC3765442",
  "about": "(PLoS ONE, 2013)",
  "proteins": {"B1": {"name": "EB1c-GFP (C-terminal domain of human EB1, Asp191-Tyr268, C-terminally EGFP-His-tagged) (domain or fragment, UniProt Q15691 191-268, looked up)", "chain": "DEAAELMQQVNVLKLTVEDLEKERDFYFGKLRNIELICQENEGENDPVLQRIVDILYATDEGFVIPDEGGPQEEQEEY", "notes": "Calculated monomer mass 38.3 kDa; also called C-terminal domain of EB1; not shown: EGFP, C-terminal, kept"}, "B2": {"name": "EB1c-GFP[A206K] (domain or fragment, human, UniProt Q15691 191-268, looked up)", "chain": "B1 chain", "notes": "As m3, but Ala206 of the EGFP tag is mutated to lysine; the EB1c part is unchanged; not shown: EGFP with A206K, C-terminal, kept"}, "B3": {"name": "EB3c-GFP (C-terminal domain of human EB3, Ala200-Tyr281, C-terminally EGFP-His-tagged) (domain or fragment, UniProt Q9UPY8 200-281, looked up)", "chain": "AQILELNQQLVDLKLTVDGLEKERDFYFSKLRDIELICQEHESENSPVISGIIGILYATEEGFAPPEDDEIEEHQQEDQDEY", "notes": "Calculated monomer mass 38.7 kDa; also called C-terminal domain of EB3; not shown: EGFP, C-terminal, kept"}},
  "key": {"[1]": {"target": "the molecule itself", "test": "AUC; absorption sedimentation equilibrium at 37°C; 1 to 60 µM (monomer equivalents); 14'000, 17'000 and 26'000 rpm; buffer as for velocity runs but without BSA; dimer to monomers"}, "[2]": {"target": "the molecule itself", "test": "AUC; fluorescence sedimentation velocity (GFP signal at 488 nm), 22°C; dilution series from about 500 to about 0.5 nM (monomer equivalents); 20 mM Tris-HCl pH 7.5, 300 mM NaCl, 0.2 mg/ml BSA, 2 mM DTT or 0.1 mM TCEP; samples incubated 16 hours at 22°C; dimer to monomers; apparent Kd"}, "[3]": {"target": "the molecule itself", "test": "SEC-MALS; Superdex 200 10/30 with in-line multi-angle light scattering; 1 to 4 mg/ml injected in 100 µl (about 1 µM at the peak); 20 mM Tris-HCl pH 7.5, 300 mM NaCl, 2 mM DTT; room temperature; single experiments"}},
  "data": [
    {"protein": "B1", "values": [
      {"measurement": "stoichiometry N", "setting": "[1]", "value": 2}
    ]},
    {"protein": "B2", "values": [
      {"measurement": "stoichiometry N", "setting": "[2]", "value": 2}
    ]},
    {"protein": "B3", "values": [
      {"measurement": "Kd", "setting": "[2]", "value": 2, "unit": "nM"},
      {"measurement": "stoichiometry N", "setting": "[3]", "value": 2}
    ]}
  ]
}
